Columns and labels:
[1] = target: Wild-type PCNA (human) (human) (UniProt P12004)
[2] = target: Monoubiquitinated PCNA ((Ub)3-PCNA): a single ubiquitin moiety on K164 of each monomer within a homotrimeric clamp ring (human) (UniProt P12004)

Sequence of Wild-type PCNA (human) (human) (P12004 whole entry): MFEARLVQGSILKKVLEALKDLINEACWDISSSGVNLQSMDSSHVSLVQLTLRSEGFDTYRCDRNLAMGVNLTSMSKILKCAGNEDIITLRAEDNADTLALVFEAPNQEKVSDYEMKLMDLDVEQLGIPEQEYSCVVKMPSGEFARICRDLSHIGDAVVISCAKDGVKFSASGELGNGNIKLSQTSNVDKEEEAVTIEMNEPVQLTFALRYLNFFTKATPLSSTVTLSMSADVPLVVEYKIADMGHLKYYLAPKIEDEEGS

B1: Pol η (human DNA polymerase eta, full length, wild type, unlabeled) (enzyme)
chain: MATGQDRVVALVDMDCFFVQVEQRQNPHLRNKPCAVVQYKSWKGGGIIAVSYEARAFGVTRSMWADDAKKLCPDLLLAQVRESRGKANLTKYREASVEVMEIMSRFAVIERASIDEAYVDLTSAVQERLQKLQGQPISADLLPSTYIEGLPQGPTTAEETVQKEGMRKQGLFQWLDSLQIDNLTSPDLQLTVGAVIVEEMRAAIERETGFQCSAGISHNKVLAKLACGLNKPNRQTLVSHGSVPQLFSQMPIRKIRSLGGKLGASVIEILGIEYMGELTQFTESQLQSHFGEKNGSWLYAMCRGIEHDPVKPRQLPKTIGCSKNFPGKTALATREQVQWWLLQLAQELEERLTKDRNDNDRVATQLVVSIRVQGDKRLSSLRRCCALTRYDAHKMSHDAFTVIKNCNTSGIQTEWSPPLTMLFLCATKFSASAPSSSTDITSFLSSDPSSLPKVPVTSSEAKTQGSGPAVTATKKATTSLESFFQKAAERQKVKEASLSSLTAPTQAPMSNSPSKPSLPFQTSQSTGTEPFFKQKSLLLKQKQLNNSSVSSPQQNPWSNCKALPNSLPTEYPGCVPVCEGVSKLEESSKATPAEMDLAHNSQSMHASSASKSVLEVTQKATPNPSLLAAEDQVPCEKCGSLVPVWDMPEHMDYHFALELQKSFLQPHSSNPQVVSAVSHQGKRNPKSPLACTNKRPRPEGMQTLESFFKPLTH
Binder B1 has an abundance of the pol η TLS complex (P2, probability of insertion at i = 2) on undamaged TT P/T DNA: increase in the presence of PCNA [1] of 2.53 fold, a primer extension by pol η on the undamaged TT P/T DNA substrate under single turnover conditions: stimulation in the presence of PCNA against pol η alone [1] of 2.02 fold and an abundance of the pol η TLS complex (P2, probability of insertion at i = 2) on undamaged TT P/T DNA: increase in the presence of (Ub)3-PCNA [2] of 2.75 fold.

— paper PMC5123862
